For assay [1], the target named is BAF155^SWIRM (SWIRM domain of human BAF155, residues 449–546) (human) (UniProt Q92922). Put plainly: ITC; VP-ITC, 25 °C, 25 mM sodium phosphate, 100 mM NaCl, 1 mM TCEP, pH 7.0; typically 160 µM hSNF5 injected into 10 µM BAF155^SWIRM or mutant in the cell; single-site model.
For assay [2], the target named is T1, BAF155^SWIRM (SWIRM domain of human BAF155, residues 449–546) (human, UniProt Q92922 449-546).
T1 construct: human BAF155, SWIRM domain, residues 449-546; 15N- or 13C,15N-labelled for the NMR experiments; also called BAF155/SRG3; source: E. coli BL21 (DE3), purified (Ni-NTA, TEV cleavage, Superdex 200); not shown: His6, N-terminal, cleaved
T1 sequence (Q92922 449-546): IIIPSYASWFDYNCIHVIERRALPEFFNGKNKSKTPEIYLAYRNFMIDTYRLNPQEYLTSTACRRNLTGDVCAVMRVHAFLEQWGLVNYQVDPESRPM
As to the kind of experiment: SEC-MALS; Wyatt WTC-030S5 column, 0.5 mL/min, 10 mM HEPES pH 7.0, 100 mM NaCl, 2 mM DTT; hSNF5^171–258 0.2 mM and BAF155^SWIRM 0.3 mM, individually or together. Conditions: both partners purified.

For assay [3], the target named is T1, BAF155^SWIRM (SWIRM domain of human …). Put plainly: ITC; VP-ITC, 25 °C, 25 mM sodium phosphate, 100 mM NaCl, 1 mM TCEP, pH 7.0; typically 160 µM hSNF5 injected into 10 µM BAF155^SWIRM or mutant in the cell; single-site model. Conditions: both partners purified.
The target is the same in assay [4]. Described as above. Conditions: both partners purified. This is another data set of the same source.
Assay [5] addresses T2, BAF155^SWIRM N476A/N479A mutant (human, UniProt Q92922 449-546, N476A | N479A).
T2 construct: human BAF155, SWIRM domain, residues 449-546, N476A and N479A; PDB 6KZ7 holds the wild-type parent of the same limits; source: E. coli BL21 (DE3), purified (Ni-NTA, TEV cleavage, Superdex 200); not shown: His6, N-terminal, cleaved
The description is as above. Particulars: both partners purified.

T2 sequence (Q92922 449-546 N476A/N479A): as the sequence (Q92922 449-546) above, with N28A, N31A counted along it
BAF155^SWIRM (SWIRM domain of human BAF155, residues 449–546) (human), sequence (Q92922 449-546): as the sequence (Q92922 449-546) above

“hSNF5^SFH1/171–253 (chimeric mutant with the N-terminal tail region from the yeast protein SFH1) (from UniProt Q12824 185-253) (domain or fragment)”: in assay [1], the Kd stood at 480 nM and the dH was -13.4 kcal/mol.

B1: hSNF5^171–258 (N- and C-terminal elongated hSNF5 RPT1 domain) (domain or fragment, human, UniProt Q12824 171-258, looked up)
chain: HDPAVIHENASQPEVLVPIRLDMEIDGQKLRDAFTWNMNEKLMTPEMFSEILCDDLDLNPLTFVPAIASAIRQQIESYPTDSILEDQS
notes: 15N- or 13C,15N-labelled for the NMR experiments; modified pET21b vector; also called human SNF5; SNF5/INI1/BAF47; source: E. coli BL21 (DE3), purified (Ni-NTA, TEV cleavage, Superdex 200); not shown: His6, N-terminal, cleaved
For the molecule B1, the “stoichiometry N” value in assay [2] was found to be 1.

B2: hSNF5^186–253 (domain or fragment, human, UniProt Q12824 186-253, looked up)
chain: LVPIRLDMEIDGQKLRDAFTWNMNEKLMTPEMFSEILCDDLDLNPLTFVPAIASAIRQQIESYPTDSI
notes: human SNF5 (hSNF5), residues 186-253; source: E. coli BL21 (DE3), purified (Ni-NTA, TEV cleavage, Superdex 200); not shown: His6, N-terminal, cleaved
For the molecule B2, in assay [3], the Kd was 760 ± 80 nM and the dH is -16 ± 0.3 kcal/mol.

B3: hSNF5^174–253 (domain or fragment, human, UniProt Q12824 174-253, looked up)
chain: AVIHENASQPEVLVPIRLDMEIDGQKLRDAFTWNMNEKLMTPEMFSEILCDDLDLNPLTFVPAIASAIRQQIESYPTDSI
notes: human SNF5 (hSNF5), residues 174-253; source: E. coli BL21 (DE3), purified (Ni-NTA, TEV cleavage, Superdex 200); not shown: His6, N-terminal, cleaved
For the molecule B3, in assay [3], binding was put at a Kd of 110 ± 30 nM and the dH was -15.8 ± 0.5 kcal/mol.

B4: hSNF5^179–253 (domain or fragment, human, UniProt Q12824 179-253, looked up)
chain: NASQPEVLVPIRLDMEIDGQKLRDAFTWNMNEKLMTPEMFSEILCDDLDLNPLTFVPAIASAIRQQIESYPTDSI
notes: human SNF5 (hSNF5), residues 179-253; source: E. coli BL21 (DE3), purified (Ni-NTA, TEV cleavage, Superdex 200); not shown: His6, N-terminal, cleaved
B4: in assay [3], the Kd turned out to be 300 ± 50 nM and the dH is -21 ± 0.6 kcal/mol.

B5: hSNF5^181–253 (domain or fragment, human, UniProt Q12824 181-253, looked up)
chain: SQPEVLVPIRLDMEIDGQKLRDAFTWNMNEKLMTPEMFSEILCDDLDLNPLTFVPAIASAIRQQIESYPTDSI
notes: human SNF5 (hSNF5), residues 181-253; source: E. coli BL21 (DE3), purified (Ni-NTA, TEV cleavage, Superdex 200); not shown: His6, N-terminal, cleaved
With B5, in assay [3], binding was put at a Kd of 300 ± 70 nM and the dH was -12.9 ± 0.4 kcal/mol.

B6: hSNF5^171–253 (domain or fragment, human, UniProt Q12824 171-253, looked up)
chain: HDPAVIHENASQPEVLVPIRLDMEIDGQKLRDAFTWNMNEKLMTPEMFSEILCDDLDLNPLTFVPAIASAIRQQIESYPTDSI
notes: source: E. coli BL21 (DE3), purified (Ni-NTA, TEV cleavage, Superdex 200); not shown: His6, N-terminal, cleaved
Regarding B6, the “stoichiometry N” value in assay [4] came out at 1. For the same molecule, the Kd in assay [5] came out at 140 ± 30 nM; in assay [3] it was 110 ± 20 nM. In addition, the values for the dH in assay [5] and in assay [3] were -17.7 ± 0.7 kcal/mol and -19.7 ± 0.3 kcal/mol, respectively.

B7: hSNF5^171–253 with the E184A mutation (domain or fragment, human, UniProt Q12824 171-253, looked up)
chain: HDPAVIHENASQPAVLVPIRLDMEIDGQKLRDAFTWNMNEKLMTPEMFSEILCDDLDLNPLTFVPAIASAIRQQIESYPTDSI
notes: as for B6
In the case of B7, in assay [3], the Kd came out at 370 ± 100 nM and the dH was -11.2 ± 0.4 kcal/mol.

B8: hSNF5^183–253 (domain or fragment, human, UniProt Q12824 183-253, looked up)
chain: PEVLVPIRLDMEIDGQKLRDAFTWNMNEKLMTPEMFSEILCDDLDLNPLTFVPAIASAIRQQIESYPTDSI
notes: human SNF5 (hSNF5), residues 183-253; also called whole αN helix-deletion mutant; source: E. coli BL21 (DE3), purified (Ni-NTA, TEV cleavage, Superdex 200); not shown: His6, N-terminal, cleaved
Regarding B8, in assay [3], the affinity, expressed as Kd, was 290 ± 80 nM and the dH was -18.7 ± 0.8 kcal/mol.
